Molecular target: human ROR1 extracellular domain (ECD) protein (human) (UniProt Q01973)
Assay: ForteBio Octet, blocking of Wnt5a binding to ROR1

human ROR1 extracellular domain (ECD) protein (human), sequence (Q01973 30-406 limits assumed): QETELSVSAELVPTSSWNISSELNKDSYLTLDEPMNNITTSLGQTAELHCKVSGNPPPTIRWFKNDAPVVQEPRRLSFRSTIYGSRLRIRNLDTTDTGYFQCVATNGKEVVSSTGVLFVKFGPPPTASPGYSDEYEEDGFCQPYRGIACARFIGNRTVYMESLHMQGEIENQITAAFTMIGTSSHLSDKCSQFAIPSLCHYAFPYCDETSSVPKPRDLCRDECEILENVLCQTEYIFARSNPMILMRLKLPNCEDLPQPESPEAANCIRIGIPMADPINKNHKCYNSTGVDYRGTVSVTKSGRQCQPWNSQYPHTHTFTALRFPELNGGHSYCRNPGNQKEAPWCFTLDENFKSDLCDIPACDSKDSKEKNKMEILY

Percentage Blocking: 0%
Substance: mAb Control (antibody)

Source: patent publication US20180009892A1
